Measurements reported in paper PMC9018529 (Molecular microbiology, 2022).

Target: the molecule itself
Test: SEC

B1: SymE (Escherichia coli MG1655), untagged after TEV cleavage of His6-TEV-SymE (natural protein, E. coli MG1655, UniProt P39394 1-113, looked up)
chain: MTDTHSIAQPFEAEVSPANNRHVTVGYASRYPDYSRIPAITLKGQWLEAAGFATGTAVDVKVMEGCIVLTAQPPAAEESELMQSLRQVCKLSARKQKQVQAFIGVIAGKQKVA
stoichiometry N: ~4
